Here are results for 22 sequences from a protein production outcome set (Wang et al. 2014).

The nature of this series: label from the status in PepcDB records.
For the sequence “MTAIDGQGKDQVIFVTKEEHETPSTVKQEEEDTNEDPKGKGLILPTGEINWDCPCLGGMASGVCGEQFKSAFTCFHFSQEEVKGSDCLEQFISMQECFHQHPELFPQDNNDLQTADPDQEHSSSISDFTTNKESDSLPTETDEIPTQLPVVS”, the protein production entry was “not failed”. In the case of “MTAKPTIAFSHLGCEKNRIDTEHMIGLLAEAGYGIDANEALADVVVVNTCSFIQAAREESVRTLVELAESGKKIVIAGCLAQHFQDQLLAELPEAIALVGTGDYHRIVDVLQRTESGERVNAISQEPSFIADENLPRYRTTTSAVAYLRVAEGCDYRCAFCIIPHLRGKQRSRSIESIVAEAKQLAAEGVQELVLISQITTNYGLDRYGKPMLAELLRQLGQVDVPWIRIHYAYPTGLTPEVIAAIRETHNVLPYLDLPLQHSHPEILKAMNRPWQGNVNDRIIEKLKEALPDAVLRTTFIAGFPGETEEHFRHLQQFIQRHEFDHVGVFAFSPEEGTAAIDLPNPVPDDVKEARRDALMATQQPIAERRNRAQIGRLVDVLIEQEHPSTGLKIGRSARFAPEVDGVVYVQGDAALGQLVTVRITDADIYDLHGEVASAADLFQASRQPSLA”, the protein production result is listed as “failed”. Regarding “MTAPAPQTKNAAWGWVLLAGLFEVGFTYALKMSQHDGKYLGLFLLCAIVSFECLAQALKTLPVGLAYAVWTGIGSVGTILVGLVLFGDSLSALRLGLLTVLIGSIAGLKIVDR”, the protein production result was “failed”. As for “MTAPEPSRDAKRLVRIDGVTKRFGDAPPALDAVSGAIGGGAITGLVGPDGAGKTTLIRLMTGLMLPDTGTMNVLGFDTRKNAAGIQAAIGYMPQRFGLYEDLSVQENLDLYADLRGLPKSERAGAFDELLTFTDLKRFTTRLAGKLSGGMKQKLGLACALLKKPRLLLLDEPGVGVDPISRRDLWKMVENLTKEGIGVVWSTAYLDEAEACDHVLLLNQGKLLFSGKPDEMTERVSDRVFRVSDVTGRRRQVLAELLQADGVIDGVIQGEAIRLVAANGKTPDIGKAGDGALLSPAPPRFEDAFVDMLGGGPGGRSRLAEAQEPLKAEGDRPVIEAKGLTKRFGDFTAADDISFDIRRGEIFGLLGPNGAGKSTTFKMLCGLLKPTGGEGRVAGFDLRRDAAEARNQLGYMAQKFSLYGDLTVMQNLEFFAGVYGLRGQRRHERIELMTEIFDFGRHAREPAKDLPLGLKQRLALACAVMHEPRALFLDEPTSGVDPITRREFWTHINGLVEKGVTVLVTTHFMDEAEYCDRISLIYRGRSIALGSPDELKARVATKNGPDPTMEDAFIALVQQSEAEDAA”, the protein production result is reported as “failed”. “MTAPGSVPLTVIGGFWGAGKTTLLNYLLKVQHSERVLVMVNDFGSINIDAELLDQGRHDRPGVVRLQNGCVCCSIGGDLMQAFLQVMSMPDRPDRIIVEASGVADPTRIAQIGRVSGGLSDEGVITLVDASAVRALAADKYVGDIVRQQILSADIVLLNKLDLSSDAEIVETRAWLRDLAPRTRVVSCIHGEVDAVSVLGIGAGKVAPDTAGGPVDVPVPDLRRASTRHADTFHSSTLATEHRFDRRRIEYALDALPQTVLRGKGFVELEGEATPALLQLCGSRWTLDPVSTPAPPAGTHLVFIATGGRGVPRFDAPSHFEQALASRDAASADTSNLEHHHHHH”: the protein production entry is given as “failed”. With “MTAQKMSAQEIIAFIGNAEKKTNVKVTFEGALAAALPENVVKLGNVLFGDWKDIEPLLANLTENKDYVVEQDGRNSAVPLLDK”, the protein production entry was “not failed”. Take “MTARYIAIDWGSTNLRAWLYQGEECLESRQSEAGVTRLNGRSPAAVLAEITQHWRDGATPVVMAGMVGSNVGWKIAPYLPLPAAFSDIGQQLTAVGDNIWIIPGLCVSRDDNHNVMRGEETQLLGARALAPSSVYVMPGTHCKWVLADRRQIHDFRTVLTGELHHLLLQLSLVGAGLPPQETSAAAFAAGLQRGINNPAVLPQLFEVRASHVLGALPREQVSEFLSGLLIGAEVATLSDTFAGQQAISLVAGSSLTSRYQQAFAAIGREVSAVAGDTAFQTGIRSIAYAVAN”: the protein production entry is “not failed”. The entry for “MTASTALTVAIWIGVMLIGGIGSVLRFLVDRSVARRLARTFPYGTLTVNITGAALLGFLAGLALPKDAALLAGTGFVGAYTTFSTWMLETQRLGEDRQMVSALANIVVSVVLGLAAALLGQWIAQI” is “failed”; for “MTATAQQLEYLKNSIKSIQDYPKPGILFRDVTSLLEDPKAYALSIDLLVERYKNAGITKVVGTEARGFLFGAPVALGLGVGFVPVRKPGKLPRETISETYDLEYGTDQLEIHVDAIKPGDKVLVVDDLLATGGTIEATVKLIRRLGGEVADAAFIINLFDLGGEQRLEKQGITSYSLVPFPGH” it is “not failed”. As for “MTAVFRNTVLVRFKHCDAAGIVFYPRYFEMLNDFIEDWFAQALDWPFDAMHGAGQAGVPTADLHCRFVAPSRLGETLTRELRVVKLGQSSFTVQVRFMGPDSGLRLEVTQRLVCVDTDKIAPRPLPDPVRQAMATYVDETLAATGSPGL”, the protein production result was “not failed”. As to “MTAVGADAPKPGAPIKEPRFGFLRRTYAMLVKELIQLKRDRLTFAMIIVIPVMQLLLFGYAINTTPRHLPTAVLLQEDSDLGRSILKALENTAYFKFTREVHSVAEFDDLLLSGRVLFGVEIPRGFERAVRRGEKPAILVAADATDPVAAGSALSALGQIVQTALMHDRVGGDPANPPFEIRAHARYNPAASSRLNIVPGLVGTILTMTMLIFTALSVTREIERGTMENLLSMPITPVEVMLGKILPYVGVGFIQASLILGIGVLLFGVPLRGSLAMLALLSTLFITTNLAIGYTFSTLVQNQLQAMQASMMFFLPSILLSGFMFPFAGMPIWAQYIGECLPLTHYLRIVRAIMLKGSTLENLQYDAVALLTLMLIAMTIAVTRFRRTLD”, the protein production result is given as “failed”. For “MTAVQLMELDSCTRCGECVKWCPTYAASGQKPGLAPRDKILRWRQYMNKSYGLKAKLFGPTEIPQSELEEFKDDVHGCTTCGICATVCESGINTVELWESLRTNLVKKGIGPFGKQGMFPKLEHHHHHH” the value was “failed”; for “MTAVRRIRAAALPDLPDASWSNALLVGEELVMSGMTAHPATRQAAERGAALDAHAQALVVLGKVKALLEAAGGHVGNLYKLNVYVTRIADKDAIGRARQEFFAGQGTFPASTLVEVSGLVFPELLVEIDAWARLDIDLANCDEA”, “not failed”; for “MTAWSLLHVGVFASVVMVVGWLWQRRSGNAGPVDVLWAGCLALAAPYCAWMADGALLPRALVAVLGGVWGARLALHLGVRVFGDPHEDGRYRALREHWNGSQGKFLGFFLAQAVVVVLFAVPFLAAASNPHAEWSAWTGIAIVVWLIAVGGEALADRQLSAHKANPANRGKTCRTGLWRYSRHPNYFFEFVHWFAYLALAVGAGPWPVALCALGPVVMFVFLYRFTGIPYTEQQALRSRGEDYAQYQRSTSAFFPLPPSS”, “failed”. As for “MTAYWIAHVTIHDMQQYQEYMKLAPAAFQKYGAKFLARGGESVCVEGQAYQRHVIIEFPDLATAQQCYDSEEYKQARLAREGCADVMISFVEGLPTN”, the protein production entry is “failed”. As for “MTCPEQAIEHDDMNVVVDVEKCKFCMDCIPVCPTGSIDNWRVVDTPYSLEDQYGWMDLPPQEDVAGDEAGLEALDDAMAALLAEAHKGAGGKSRAPATASKPTINLYTLGKPAEARVTGNYRLTAESSDSDVRHIILDFGGQPFPVLEGQSIGIIPPGTDEAGNPHLPRLYSVSSPRDGERPNFNNLSLTVKREPHGICSNHVCDLKPGDTVRVTGPFGATFLMPSDPAAHLLMICTGTGSAPFRAFTMRRQRESPKLRNSLTLVFGARRPQELPYFGPLAKVPEQFMAKHFAFSRQDGAPKHYVQDRLRAEADRVGELLADPLTHVYVCGLKAMEQGVEEAFKDIARAQGIDWTGLRDRMRDEGRYHVETY”, the protein production result was “failed”. Turning to “MTDATVGDEAAAPTVVRLDASCTTQEVEAGEYYHATVNGVVEYGAFVDLSEHVSGLIHESTYSGDPDLAVDDDVIVHLSAVRDNGDLSFEFVDPEEYRTEQRSHAYERTTADAVGSRIGDTVHIEGEVVQIKQTAGPTVFRVRDETSAIPCTAFEDAGVRAHPGVEVGDIVHVSGDADDREGTTQLEVDAFEVLSGGDSADVARRLDAALAEQADPVDVDALVDWPALEQLLPDLRSVARTLRRAVLEGRPIRMRHHADGDGMCASLPVQYALRQFIEDTHQDEDAARHLLKRLPSKAPYYEMEDATRDLNFALEDRARHGQKLPLLLMLDNGSTEEDTPAYKTLDNYDIPIVVVDHHHPDPGAVDPLVDEHVNPYLHGEDYRITTGMLCVELARMIYPGITSDLEHVPAVAGLSDRSKADAMTDYLDLARDAGYDESFLQQMSEALDYEAYMLRYDHGTQVIADILNVDGDAQRHRELVPFLDRLASEAVAEQLDATRSHVEHERVASGANLYRIDVENHAHRFTYPRAGENNRRDPRPQGRGNRGAGDHHRLRPGLRGAPVGRRAPGHPHDGRRTQRRTPWGRRLRRRPPGRRLDPVRSRDA”, the protein production result is listed as “failed”.

For “MTDDPTLWAQRLEEAVVGLGANGDRSHDLAHAKRVLRTALALADGVEDQGEGPVDRLVLTAAAYLHDIVAIEKNDPRRSLASRLSAAKAREILGGLDFPAGRQDGVAHAIEAHSFSAGIAPRSLEARILQDADRMESLGAIGVARTFYVAGRLGSALFHDDDPLAFARPLDERAYALDHFFTKLLTLPATMTTAPGRAMAGERAELLRAFAEALAQEVSGAAAPGPRPARPSDGEAPSPLPVWPGSGTRTR”, the protein production entry was “failed”.

With “MTDDVDDGWAASAAAWIIEQGEDGDYGRRFVLDAPMRARIEGRGFRNALDVGCGEGRFCRIMQRAGIRTTGIDPTEALLARARELDPRGDYRLGRAETMDIDACFDLVVSYLSLIDIPDLGTAIAKMVGALRPGGTLLIANLTSFNTAGQPDGWARDRKGEMRFAIDHYMDERPIWLSWRGIRLQNWHRPLGTYMTLLLDHGLQLRLFVEPEPTSGDPRRNDLHRRVPYFHMMEWQKPA”, the protein production result is “failed”.

As for “MTDESSVRTPKALPDGVSQATVGVRGGMLRSGFEETAEAMYLTSGYVYGSAAVAEKSFAGELDHYVYSRYGNPTVSVFEERLRLIEGAPAAFATASGMAAVFTSLGALLGAGDRLVAARSLFGSCFVVCSEILPRWGVQTVFVDGDDLSQWERALSVPTQAVFFETPSNPMQSLVDIAAVTELAHAAGAKVVLDNVFATPLLQQGFPLGVDVVVYSGTKHIDGQGRVLGGAILGDREYIDGPVQKLMRHTGPAMSAFNAWVLLKGLETLAIRVQHSNASAQRIAEFLNGHPSVRWVRYPYLPSHPQYDLAKRQMSGGGTVVTFALDCPEDVAKQRAFEVLDKMRLIDISNNLGDAKSLVTHPATTTHRAMGPEGRAAIGLGDGVVRISVGLEDTDDLIADIDRALS”, the protein production result is “not failed”. Turning to “MTDIHPREILICTIAKLLDGVRHVAVGASSPIPASGAMLLRALKQQAGETGPRISILGSVEHNFFTNGSAELFDCAGQGRIDAFFLGGGQIDGQGNINLVGTGEYPQTQVRWPGSFGSAYLYYVVPRVILFREEHTPRAMVEKVDFISAPGLSDEGVYRPGGPIALLTSKALFRFDKNRRGFELESVHPGYDLAAIKEATGFKFAHDDVPAQTALPDPQVLKLLRERVYDEVAETYPDFAAQMRREIAQPLPRAS”, the protein production result is “failed”.

Turning to “MTDIRKAATLVVIRDGANKDIEVLVVRRAKTMRFLPGFVAFPGGAADPSDAEMAKRAFGRPVCAEDDDDPALAVTALRETAEEIGWLLAVRDGEGTKMDTPLAPDEQADLCKGGDALSAWLSARGLAFDLGLLRRIGRFVTPPTQPVRFDTRFFLCVGQHLGEPRLHGAELDAALWTPARDMLTRIQSGELPAVRPTIAVLKALVACPNAEIAMSTLSIGPLPPPAPRA”, the protein production entry is “not failed”.
